The target of series [1] is T1, Insulin receptor (IR) (Homo sapiens, UniProt P06213-2;P06213-2 P06213-2:28-746,P06213-2:751-944). In words: filter; +/-0.28; same buffer, 5 mM MgCl2, 37 C. The note with it: tags: His-tagged; R&D Systems Cat# 1544-IR; chain copies: 2; label: 5'-32P. The method, then:
(§1) Aptamers identified using the above SELEX process were amplified by PCR and cloned as described above. Up to fifty randomly picked plasmid clones were sequenced. To verify that cloned aptamers bind to IR or ERBB2, aptamers that had same sequence in the aptamer pool were tested for binding affinity. Briefly, aptamers were incubated with various concentrations of target His-tagged proteins and the target His-tagged proteins were captured on Talon bead. Radio labeled aptamers that were bound to target proteins were then detected by phosphoimager.
(§2) Specifically, Aptamer-protein equilibrium dissociation constants (Kd's) were determined by the nitrocellulose-filter binding method as described by White et al. in Mol. Ther., 2001, 4(6), 567-73. For all binding assays, aptamers were dephosphorylated using alkaline phosphatase (New England Biolab) and labeled at the 5′-end using T4 polynucleotide kinase (New England Biolabs, Beverly, Mass.) and [γ³²P]ATP (Amersham Pharmacia Biotech, Piscataway, N.J.) as described by Fitzwater et al., in Methods Enzymol, 1996, 267, 275-301. […] The fraction of bound aptamer was quantified with a PhosphorImager (Fuji FLA-5100 Image Analyzer, Tokyo, Japan). […]

Series [2] concerns the target T2, ERBB2 (HER2) (UniProt P04626 P04626:23-652). In words: filter; +/-1.25; same buffer, 37 C. The following applies: tags: His-tagged; R&D Systems Cat# 1129-ER; label: 5'-32P. The protocol: as §1, §2
Series [3] deals with T2, ERBB2 (HER2). In words: filter; +/-0.39; same buffer, 37 C. The following applies: tags: His-tagged; R&D Systems Cat# 1129-ER; label: 5'-32P. The protocol: as §1, §2
For series [4], the target named is T2, ERBB2 (HER2). In words: filter; +/-0.12; 40 mM HEPES pH 7.5, 120 mM NaCl, 5 mM KCl, 5 mM MgCl2, 0.002% tween-20, 37 C. The following applies: tags: His-tagged; R&D Systems Cat# 1129-ER; label: 5'-32P. The protocol: as §1, §2
Series [5] deals with T1, Insulin receptor (IR). Put plainly: filter; +/-0.78; same buffer, 5 mM MgCl2, 37 C. The note with it: tags: His-tagged; R&D Systems Cat# 1544-IR; chain copies: 2; label: 5'-32P. The protocol: as §1, §2
In series [6] the target is T1, Insulin receptor (IR). In words: FP; placeholder. The following applies: tags: His-tagged; R&D Systems Cat# 1544-IR; chain copies: 2; label: 5'-32P.
Series [7] concerns the target T1, Insulin receptor (IR). Put plainly: filter; +/-1.08; 40 mM HEPES pH 7.5, 120 mM NaCl, 5 mM KCl, 5 mM MgCl2, 0.002% tween-20, 37 C; not competing with IR-13. The note with it: tags: His-tagged; R&D Systems Cat# 1544-IR; chain copies: 2; label: 5'-32P.
The target in series [8] is T1, Insulin receptor (IR). In words: filter; +/-0.26; same buffer, 5 mM MgCl2, 37 C. The following applies: tags: His-tagged; R&D Systems Cat# 1544-IR; chain copies: 2; label: 5'-32P. The method, then:
as §1, §2

The target in series [9] is T2, ERBB2 (HER2). Put plainly: filter; +/-0.20; same buffer, 37 C; not competing with ERBB2-12. The note with it: tags: His-tagged; R&D Systems Cat# 1129-ER; label: 5'-32P.

T1 sequence (P06213 other isoform, or with tags, fused parts or gaps, chain 1 of 2): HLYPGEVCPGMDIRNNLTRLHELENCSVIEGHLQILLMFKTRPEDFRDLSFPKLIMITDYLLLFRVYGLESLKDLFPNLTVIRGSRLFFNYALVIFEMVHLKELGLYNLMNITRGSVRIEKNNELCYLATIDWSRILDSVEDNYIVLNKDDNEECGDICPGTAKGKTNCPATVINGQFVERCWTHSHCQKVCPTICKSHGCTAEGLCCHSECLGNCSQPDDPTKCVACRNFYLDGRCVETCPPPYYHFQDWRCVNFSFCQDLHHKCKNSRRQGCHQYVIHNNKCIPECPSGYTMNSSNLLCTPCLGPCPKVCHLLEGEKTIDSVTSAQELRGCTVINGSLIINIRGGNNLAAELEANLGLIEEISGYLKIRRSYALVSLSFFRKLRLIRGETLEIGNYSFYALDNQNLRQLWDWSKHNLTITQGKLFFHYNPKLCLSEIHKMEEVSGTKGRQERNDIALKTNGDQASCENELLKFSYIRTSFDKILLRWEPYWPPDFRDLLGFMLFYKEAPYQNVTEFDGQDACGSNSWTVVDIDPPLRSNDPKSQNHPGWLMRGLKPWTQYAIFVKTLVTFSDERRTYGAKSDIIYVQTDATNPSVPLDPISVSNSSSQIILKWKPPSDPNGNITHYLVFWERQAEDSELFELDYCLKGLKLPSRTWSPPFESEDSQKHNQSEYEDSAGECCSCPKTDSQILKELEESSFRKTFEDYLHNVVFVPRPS
T1 sequence (P06213 763-956, chain 2 of 2): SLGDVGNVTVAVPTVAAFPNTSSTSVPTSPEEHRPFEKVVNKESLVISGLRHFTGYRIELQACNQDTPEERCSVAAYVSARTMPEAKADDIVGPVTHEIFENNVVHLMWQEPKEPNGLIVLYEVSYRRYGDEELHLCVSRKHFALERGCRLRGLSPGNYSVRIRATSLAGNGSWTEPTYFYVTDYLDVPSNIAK

B1: IR-25 (ssDNA)
DNA: GAGTGACCGTCTGCCTGAGATCCGACTGTTTACTGTTTAACAGCCGGCTGATGGACCCAGCCACACCACCAGCC
In general, Kd refers to the concentration at which binding is half-saturated. For the molecule B1, in the series with Insulin receptor (IR) [1], the equilibrium dissociation constant (Kd) was found to be 13.3 nM.

B2: ERBB2-19 (ssDNA)
DNA: GAGTGACCGTCTGCCTGATTAGATGAAAGCGCATTCCAACAACAGATAATCTGAGGGCAGCCACACCACCAGCC
As for B2, the Kd in the series with ERBB2 (HER2) [2] is 15.8 nM.

B3: ERBB2-10 (ssDNA)
DNA: GAGTGACCGTCTGCCTGGTTAGACTGAACGCACTGAGGGCCGCAGCCTATCTGAAGGCAGCCACACCACCAGCC
In turn, B3 gave a dissociation constant Kd with ERBB2 (HER2) [3] of 3.7 nM.

B4: ERBB2-12 (ssDNA)
DNA: GAGTGACCGTCTGCCTGTCCTGGCATGTTCGATGGAGGCCTTTGATTACAGCCCAGACAGCCACACCACCAGCC
Molecule B4 had a Kd with ERBB2 (HER2) [4] of 0.78 nM.

B5: IR-13 (ssDNA)
DNA: GAGTGACCGTCTGCCTGTTATCCACTATGGCTTCTCATTCAAATAAGTGCGATCGATCAGCCACACCACCAGCC
Molecule B5 returned a Kd in the series with Insulin receptor (IR) [5] of 4.83 nM.

B6: IR-6 (ssDNA)
DNA: GAGTGACCGTCTGCCTGTGGGTACAGTCTTTAGCTTACACAGGCTCCTGAAGACGCACAGCCACACCACCAGCC
For B6, the Kd with Insulin receptor (IR) [6] and with Insulin receptor (IR) [7] was 4.6 nM in each case.

B7: IR-11 (ssDNA)
DNA: GAGTGACCGTCTGCCTGTAAGGTTTAAGCTTGGCCTAATGGTGCTATCAGGCTCAGCAGCCACACCACCAGCC
B7 yielded a Kd with Insulin receptor (IR) [8] of 5.48 nM.

B8: ERBB2-1 (ssDNA)
DNA: GAGTGACCGTCTGCCTGATGTTAGAGTTTGCCTGAGTGCCTCGTAAGGGCGTAACAACAGCCACACCACCAGCC
In the series with ERBB2 (HER2) [9], B8 had a Kd of 3.05 nM. This lies in the single-digit nanomolar range.

The values are drawn from patent US20110262922, “APTAMER SANDWICH ASSAYS” (POSCO, published 2011).
